{
  "source": "patent US20150218238A1",
  "about": "“TREATING DISEASES BY MODULATING A SPECIFIC ISOFORM OF MKL1” (NOVARTIS FORSCHUNGSSTIFTUNG, ZWEIGNIEDERLASSUNG FRIEDRICH …, priority 2012, published 2015)",
  "molecules": {"B1": {"name": "MKL_S: novel short isoform of human MKL1 (SEQ ID NO:1), stably overexpressed in EcR-293 cells from construct 5′UTR-MKL_S (protein, listed as Homo sapiens)", "chain": "MTLLEPEMLMMAVQSVLQLKLQQRRTREELVSQGIMPPLKSPAAFHEQRRSLERARTEDYLKRKIRSRPERSELVRMHILEETSAEPSLQAKQLKLKRARLADDLNEKIAQRPGPMELVEKNILPVESSLKEAIIVGQVNYPKVADSSSFDEDSSDALSPEQPASHESQGSVPSPLEARVSEPLLSATSASPTQVVSQLPMGRDSREMLFLAEQPPLPPPPLLPPSLTNGTTIPTAKSTPTLIKQSQPKSASEKSQRSKKAKELKPKVKKLKYHQYIPPDQKQDRGAPPMDSSYAKILQQQQLFLQLQILNQQQQQHHNYQAILPAPPKSAGEALGSSGTPPVRSLSTTNSSSSSGAPGPCGLARQNSTSLTGKPGALPANLDDMKVAELKQELKLRSLPVSGTKTELIERLRAYQDQISPVPGAPKAPAATSILHKAGEVVVAFPAARLSTGPALVAAGLAPAEVVVATVASSGVVKFGSTGSTPPVSPTPSERSLLSTGDENSTPGDTFGEMVTSPLTQLTLQASPLQILVKEEGPRAGSCCLSPGGRAELEGRDKDQMLQEKDKQIEALTRMLRQKQQLVERLKLQLEQEKRAQQPAPAPAPLGTPVKQENSFSSCQLSQQPLGPAHPFNPSLAAPATNHIDPCAVAPGPPSVVVKQEALQPEPEPVPAPQLLLGPQGPSLIKGVAPPTLITDSTGTHLVLTVTNKNADSPGLSSGSPQQPSSQPGSPAPAPSAQMDLEHPLQPLFGTPTSLLKKEPPGYEEAMSQQPKQQENGSSSQQMDDLFDILIQSGEISADFKEPPSLPGKEKPSPKTVCGSPLAAQPSPSAELPQAAPPPPGSPSLPGRLEDFLESSTGLPLLTSGHDGPEPLSLIDDLHSQMLSSTAILDHPPSPMDTSELHFVPEPSSTMGLDLADGHLDSMDWLELSSGGPVLSLAPLSTTAPSLFSTDFLDGHDLQLHWDSCL"}},
  "tested_on": "EcR-293 cells",
  "assay": "DNA microarray on EcR-293 cells overexpressing MKL1 isoforms",
  "type": "cell-based, human",
  "conditions": "for ACTA2 fold change vs. control / ADAM21 fold change vs. control / AMBN fold change vs. control / CNN2 fold change vs. control / DSEL fold change vs. control / ESRRG fold change vs. control / MKL1 (total) fold change vs. control / MMP16 fold change vs. control / NAP1L3 fold change vs. control / OSTN fold change vs. control / PDGFD fold change vs. control / ROCK1P1 fold change vs. control / RORB fold change vs. control / SLC8A1 fold change vs. control / SPOCK3 fold change vs. control: vs empty pcDNA3 vector",
  "procedure": "DNA microarray EcR-293 cells stably transfected with 1) the empty pcDNA3 vector, 2) 5′UTR-MKL_L, 3) 5′UTR-MKL_S were grown in triplicates. For “untreated” samples, total RNA was extracted from cells in D-MEM/10% FBS. “LPA treated” cells were starved for 16 h in D-MEM/0.3% FBS and subsequently treated with 50 μm LPA for 20 min. RNA was extracted 4 h after treatment. RNA was converted into labeled cRNA and hybridized to Affymetrix Human Gene 1.0 arrays (Affymetrix, Santa Clara, Calif., USA). The procedure for the microarray analysis was as previously described (4). Differences in gene expression were calculated for 2) vs. 1), 3) vs. 1), and 3) vs. 2). • (1) Miralles F et al., Cell, Volume 113, Issue 3, May 2003, 329-342 • (2) Maier S et al., Biochimica et Biophysica Acta (BBA)—Molecular Cell Research, Volume 1783, Issue 6, June 2008, 1150-1162 • (3) Martina et al., The FASEB Journal, Volume 24, Issue 3, March 2010, 778-787 • (4) Asparuhova et al., The FASEB Journal, Volume 25, Issue 10, October 2011, 3477-3488",
  "data": [
    {"molecule": "B1", "values": [
      {"measurement": "ACTA2 fold change MKL_S vs. MKL_L", "setting": "4 h after LPA treatment", "value": "<1.20", "unit": "fold"},
      {"measurement": "ADAM21 fold change MKL_S vs. MKL_L", "setting": "4 h after LPA treatment", "value": "+1.65 (2.95E−05) fold"},
      {"measurement": "AMBN fold change MKL_S vs. MKL_L", "setting": "4 h after LPA treatment", "value": "+1.67 (1.04E−03) fold"},
      {"measurement": "CNN2 fold change MKL_S vs. MKL_L", "setting": "4 h after LPA treatment", "value": "+1.44 (1.06E−06) fold"},
      {"measurement": "DSEL fold change MKL_S vs. MKL_L", "setting": "4 h after LPA treatment", "value": "+1.50 (2.87E−04) fold"},
      {"measurement": "ESRRG fold change MKL_S vs. MKL_L", "setting": "4 h after LPA treatment", "value": "<1.20", "unit": "fold"},
      {"measurement": "MKL1 (total) fold change MKL_S vs. MKL_L", "setting": "4 h after LPA treatment", "value": "−1.91 (3.79E−06) fold"},
      {"measurement": "MMP16 fold change MKL_S vs. MKL_L", "setting": "4 h after LPA treatment", "value": "+2.54 (1.95E−05) fold"},
      {"measurement": "NAP1L3 fold change MKL_S vs. MKL_L", "setting": "4 h after LPA treatment", "value": "+1.49 (1.82E−03) fold"},
      {"measurement": "OSTN fold change MKL_S vs. MKL_L", "setting": "4 h after LPA treatment", "value": "+1.92 (1.57E−04) fold"},
      {"measurement": "PDGFD fold change MKL_S vs. MKL_L", "setting": "4 h after LPA treatment", "value": "<1.20", "unit": "fold"},
      {"measurement": "ROCK1P1 fold change MKL_S vs. MKL_L", "setting": "4 h after LPA treatment", "value": "+1.60 (1.99E−03) fold"},
      {"measurement": "RORB fold change MKL_S vs. MKL_L", "setting": "4 h after LPA treatment", "value": "<1.20", "unit": "fold"},
      {"measurement": "SLC8A1 fold change MKL_S vs. MKL_L", "setting": "4 h after LPA treatment", "value": "−1.31 (1.42E−03) fold"},
      {"measurement": "SPOCK3 fold change MKL_S vs. MKL_L", "setting": "4 h after LPA treatment", "value": "2.18 (2.70E−06) fold"},
      {"measurement": "ACTA2 fold change MKL_S vs. MKL_L", "setting": "untreated cells", "value": "<1.20", "unit": "fold"},
      {"measurement": "ADAM21 fold change MKL_S vs. MKL_L", "setting": "untreated cells", "value": "<1.20", "unit": "fold"},
      {"measurement": "AMBN fold change MKL_S vs. MKL_L", "setting": "untreated cells", "value": "+1.73 (5.61E−04) fold"},
      {"measurement": "CNN2 fold change MKL_S vs. MKL_L", "setting": "untreated cells", "value": "+1.53 (7.48E−06) fold"},
      {"measurement": "DSEL fold change MKL_S vs. MKL_L", "setting": "untreated cells", "value": "+1.51 (1.13E−03) fold"},
      {"measurement": "ESRRG fold change MKL_S vs. MKL_L", "setting": "untreated cells", "value": "<1.20", "unit": "fold"},
      {"measurement": "MKL1 (total) fold change MKL_S vs. MKL_L", "setting": "untreated cells", "value": "−1.54 (8.11E−08) fold"},
      {"measurement": "MMP16 fold change MKL_S vs. MKL_L", "setting": "untreated cells", "value": "+2.03 (9.27E−06) fold"},
      {"measurement": "NAP1L3 fold change MKL_S vs. MKL_L", "setting": "untreated cells", "value": "+1.75 (1.30E−04) fold"},
      {"measurement": "OSTN fold change MKL_S vs. MKL_L", "setting": "untreated cells", "value": "+1.90 (2.17E−04) fold"},
      {"measurement": "PDGFD fold change MKL_S vs. MKL_L", "setting": "untreated cells", "value": "<1.20", "unit": "fold"},
      {"measurement": "ROCK1P1 fold change MKL_S vs. MKL_L", "setting": "untreated cells", "value": "<1.20", "unit": "fold"},
      {"measurement": "RORB fold change MKL_S vs. MKL_L", "setting": "untreated cells", "value": "<1.20", "unit": "fold"},
      {"measurement": "SLC8A1 fold change MKL_S vs. MKL_L", "setting": "untreated cells", "value": "<1.20", "unit": "fold"},
      {"measurement": "SPOCK3 fold change MKL_S vs. MKL_L", "setting": "untreated cells", "value": "+1.97 (6.82E−06) fold"},
      {"measurement": "ACTA2 fold change vs. control", "setting": "4 h after LPA treatment", "value": "+2.02 (2.99E−05) fold"},
      {"measurement": "ADAM21 fold change vs. control", "setting": "4 h after LPA treatment", "value": "+1.38 (3.69E−06) fold"},
      {"measurement": "AMBN fold change vs. control", "setting": "4 h after LPA treatment", "value": "+5.14 (1.97E−07) fold"},
      {"measurement": "CNN2 fold change vs. control", "setting": "4 h after LPA treatment", "value": "+1.67 (6.37E−08) fold"},
      {"measurement": "DSEL fold change vs. control", "setting": "4 h after LPA treatment", "value": "+2.33 (1.17E−06) fold"},
      {"measurement": "ESRRG fold change vs. control", "setting": "4 h after LPA treatment", "value": "+1.93 (4.52E−08) fold"},
      {"measurement": "MKL1 (total) fold change vs. control", "setting": "4 h after LPA treatment", "value": "+2.41 (3.56E−07) fold"},
      {"measurement": "MMP16 fold change vs. control", "setting": "4 h after LPA treatment", "value": "+5.86 (1.39E−07) fold"},
      {"measurement": "NAP1L3 fold change vs. control", "setting": "4 h after LPA treatment", "value": "+2.78 (2.44E−06) fold"},
      {"measurement": "OSTN fold change vs. control", "setting": "4 h after LPA treatment", "value": "+2.23 (3.48E−05) fold"},
      {"measurement": "PDGFD fold change vs. control", "setting": "4 h after LPA treatment", "value": "+1.61 (8.28E−06) fold"},
      {"measurement": "ROCK1P1 fold change vs. control", "setting": "4 h after LPA treatment", "value": "+1.53 (3.63E−03) fold"},
      {"measurement": "RORB fold change vs. control", "setting": "4 h after LPA treatment", "value": "+1.46 (1.34E−04) fold"},
      {"measurement": "SLC8A1 fold change vs. control", "setting": "4 h after LPA treatment", "value": "+1.67 (1.71E−05) fold"},
      {"measurement": "SPOCK3 fold change vs. control", "setting": "4 h after LPA treatment", "value": "+5.04 (8.54E−09) fold"},
      {"measurement": "ACTA2 fold change vs. control", "setting": "untreated cells", "value": "+2.30 (1.88E−07) fold"},
      {"measurement": "ADAM21 fold change vs. control", "setting": "untreated cells", "value": "−1.21 (1.63E−02) fold"},
      {"measurement": "AMBN fold change vs. control", "setting": "untreated cells", "value": "<1.20", "unit": "fold"},
      {"measurement": "CNN2 fold change vs. control", "setting": "untreated cells", "value": "+2.53 (1.91E−08) fold"},
      {"measurement": "DSEL fold change vs. control", "setting": "untreated cells", "value": "+2.43 (5.20E−06) fold"},
      {"measurement": "ESRRG fold change vs. control", "setting": "untreated cells", "value": "+2.37 (2.34E−08) fold"},
      {"measurement": "MKL1 (total) fold change vs. control", "setting": "untreated cells", "value": "+3.70 (1.19E−11) fold"},
      {"measurement": "MMP16 fold change vs. control", "setting": "untreated cells", "value": "+2.98 (3.46E−07) fold"},
      {"measurement": "NAP1L3 fold change vs. control", "setting": "untreated cells", "value": "+2.68 (1.98E−06) fold"},
      {"measurement": "OSTN fold change vs. control", "setting": "untreated cells", "value": "<1.20", "unit": "fold"},
      {"measurement": "PDGFD fold change vs. control", "setting": "untreated cells", "value": "+2.01 (4.75E−05) fold"},
      {"measurement": "ROCK1P1 fold change vs. control", "setting": "untreated cells", "value": "<1.20", "unit": "fold"},
      {"measurement": "RORB fold change vs. control", "setting": "untreated cells", "value": "+1.96 (2.76E−07) fold"},
      {"measurement": "SLC8A1 fold change vs. control", "setting": "untreated cells", "value": "+1.70 (5.75E−07) fold"},
      {"measurement": "SPOCK3 fold change vs. control", "setting": "untreated cells", "value": "+3.21 (1.08E−07) fold"}
    ]}
  ]
}
